Test system: MS2 coat protein
Assay: apparent KD of MS2 coat protein; designed switch direction (-1 OFF switch, 1 ON switch): -1; higher = weaker reporter binding
In short: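 Designed RNA switches sharing common flanks were transcribed on Illumina chips by stalled E. coli RNA polymerase. They were titrated with SNAP-549-labelled MS2 coat protein, from 0.7 or 1.5 nM doubling to 3 µM, in Tris-HCl pH 7.5 buffer with KCl, MgCl2, BSA, DTT, tRNA and Tween-20. Titrations ran without input, with 200 uM small-molecule ligand, or with an oligonucleotide input. The apparent KD of each design is the median over its clusters, after curve-fitting of normalised cluster fluorescence.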

[1] = input ligand: microRNA oligo, concentration not stated
[2] = Eterna round: R95, input ligand: microRNA oligo, concentration not stated
[3] = Eterna round: R95, input ligand: FMN 200 uM
[4] = Eterna round: R95, input ligand: none

Sequence | apparent KD of MS2 coat protein (input ligand: FMN 200 uM) [nM] | apparent KD of MS2 coat protein (input ligand: none) [nM] | also measured
CGUGGACAUAACAAGCUUUACAUGAGGAUCACCCAUGUGAUCAUGCUCGUCUUAUGGUCCACGAAUUAAUUAAUUAA [Stov1/6-C1] (Eterna round: R97, puzzle: Sensor, turn-off variant 1) | 19.5 | 19.9 | –
GGGUUUGGAGGAUAUACAUGAGGAUCACCCAUGUACCCGGGCCCUAUUGGGUUUGGGUGUAGAAGGCCGGGCCC [-33.9, -31.3 kcal, A 19%, 5bbis,5b] (Eterna round: R97, puzzle: Exclusion 3) | 20.4 | 17.7 | –
UAUCGGGACUGAGGAUAUUCGUUCGAGCACGAAGAAGAAGGUAGUGUCAGGGACAUGAGGAUCACCCAUGUGAUCUCAGUCCCA [JL ViennaUCT Erinle mod 7] (Eterna round: R96, puzzle: Exclusion NG 1) | 71.8 | 67 | apparent KD of MS2 coat protein [1]: 60.4 nM
AAAUUGGUAGAGGAUAUCGUACAGGAAACAAUGCGAGAAGGCUGCACAUGAGGAUCACCCAUGUUCAGUUGCGA [EX6 #40] (Eterna round: R97, puzzle: Exclusion 6) | 16.8 | 15.2 | –
UACAUGAGGAUCACCCAUGUUUUGUCGUGUAUGGUAUUUAUCUAGGAUAUCAAUGUGUUUAUUUAUGAGAAGGAGAAUAUUAAU [JMF's solution 39] (Eterna round: R96, puzzle: Exclusion NG 3) | 40 | 35.4 | apparent KD of MS2 coat protein [1]: 31.8 nM
AUCAAAUUAAAUACAGAUCACAUGAGGAUCACCCAUGUCGUACGAGUGCAGAUCUUUGAAGCUGGCUCGUCUAAGUG [Eternabot (L2) Solution 21] (Eterna round: R97, puzzle: Sensor, turn-off variant 1) | 154 | 165 | –
GUAGCCCGAGGAUAUACAUGAGGAUCACCCAUGUAUCGUUCGAGAAGACUCGGCCCGUGUAGAAGGCGGUAUCC [Eternabot (L1) Solution 22] (Eterna round: R97, puzzle: Exclusion 3) | 25.3 | 23.1 | –
ACUAGAUGAGGAUAUGCAUGUUUUCGUGUUCUUCUAGAUUAACAUGAGGAUCACCCAUGUAGAAGGCGUCAUUU [Exclusion 2 - 27] (puzzle: Exclusion 2) | – | – | apparent KD of MS2 coat protein [2]: 76.9 nM
UAAGUUGUGGUAGGAUAUACUUUAAAUUUCUCUAUCCAUACAUGAGGAUCACCCAUGUUUACAUUGUAGAAGGACCUUUUUGUU [JR_ExcNG2_Sub058] (Eterna round: R96, puzzle: Exclusion NG 2) | – | – | apparent KD of MS2 coat protein [1]: 19.7 nM
GCAGAUCAAGUGAGGAUAUGCUCUACCUCGGUAGAGCAGAAGGCACAUGAGGAUCACCCAUGUGAUUGAUCUGC [Omei Ex4B B5] (Eterna round: R97, puzzle: Brourd's mod of Exclusion 4) | 26.9 | 19.5 | –
UACAUGAGGAUCACCCAUGUUUUGUCGUGUAUGGUAUUUAUCUAGGAUAUCACUUUAUUUAUUUAUGAGAAGGAGAAUAUUAAU [JMF's solution 8] (Eterna round: R96, puzzle: Exclusion NG 3) | 34.2 | 37.9 | apparent KD of MS2 coat protein [1]: 27.1 nM
CCGAGUCGAGUGAGGAUAUAGCUAAGACCGCUUAGCUAGAAGGCACAUGAGGAUCACCCAUGUCUUAGGAGAAG [Eternabot (L1) Solution 80] (Eterna round: R97, puzzle: Brourd's mod of Exclusion 4) | 22.4 | 22.2 | –
CCGGAAAUGAAGGAUAUAGGAGUCGAUAGACUCCUAGAAGGUCAUACAUGAGGAUCACCCAUGUGUCCUACCGG [Fiskers Ex 6 - 74] (puzzle: Exclusion 6) | – | – | apparent KD of MS2 coat protein [2]: 12.9 nM
UAAAGUAUAUAGGAUAUCUAGCUGGUAACAGCUAGAGAAGGAUGUACAUGAGGAUCACCCAUGUAAAUCAGUGA [Ex6/14-A2] (Eterna round: R97, puzzle: Exclusion 6) | 23.3 | 17.9 | –
GAGUAGGGAGGAUAUGCAGAAUGACUCGUAAGUAAGAUAGGACAUGAGGAUCACCCAUGUAGAAGGCUCUGAUG [jun14#1] (Eterna round: R97, puzzle: Exclusion 2) | 46.3 | 42 | –
GGUCGGCGAGGAUAUACAUGAGGAUCACCCAUGUGAGAUAGUGCACGCGUACGUGUACGUAGAAGGCGCUGACG [JL-ex3-3.25 salish99 mod] (puzzle: Exclusion 3) | – | – | apparent KD of MS2 coat protein [3]: 26.1 nM; apparent KD of MS2 coat protein [2]: 12.4 nM; apparent KD of MS2 coat protein [4]: 8.3 nM
GCCCGUGCGGAGGAUAUUGAUAUCCCAGUCUAUCAAGAAGGCUGCACAUGAGGAUCACCCAUGUGACCUGUGCU [Retiqule] (puzzle: Exclusion 6) | – | – | apparent KD of MS2 coat protein [2]: 15.8 nM
UUUAGUUCAGGAUAUGUAGAUUUUAACAUGAGGAUCACCCAUGUAGAUCCUGAAUUAACUACAGAAGGGAACAUUU [Mod of Brourd 1 - Jieux - Exclusion 5] (Eterna round: R97, puzzle: Exclusion 5) | 77.2 | 22.5 | –

Sequence | apparent KD of MS2 coat protein (input ligand: FMN 200 uM) [nM] | apparent KD of MS2 coat protein (input ligand: none) [nM] | also measured
UCAUGAUGAUAGGAUAUCGCGCGGUGAAAUGCGCGAGAAGGAUUAACAUGAGGAUCACCCAUGUUGGUCUGUUA [Eternabot (L2) Solution 69] (Eterna round: R97, puzzle: Exclusion 6) | 27.9 | 15.3 | –
UUAAUACAUGUAGGAUAUGCGUGGCGAAGCUAUGCAGAAGGACAUGAGGAUCACCCAUGUUCAUGCGUCCGCGUACGGAUGCAA [JL Eng1 1.21 mod 7] (Eterna round: R96, puzzle: Exclusion NG 1) | 19.9 | 14.9 | apparent KD of MS2 coat protein [1]: 12.6 nM
UGUAGAGUGGUAGGAUAUCCGUCUGUUUCAGUCGGAGAAGGACCACAGUCACUGGGUCCAUGUUUCAUGGAGACCUGAUCUACU [pwkr exNG1 F6.10] (Eterna round: R96, puzzle: Exclusion NG 1) | 185 | 195 | apparent KD of MS2 coat protein [1]: 49 nM
CCAGGAAGGCAGGAUAUCCAAAGCCGUCCCGGCGGAGAAGGGCUAACUUGAGGAUCACCCAAGUGAUGCCUAAC [Oreden] (Eterna round: R97, puzzle: Exclusion 6) | 13 | 14.2 | –
AACCAGCGAGGAUAUUGUUGGUAAAACAUGAGGAUCACCCAUGUCACGUGAUCUUCCCAACAAGAAGGUGCACUAA [Isrierin] (Eterna round: R97, puzzle: Exclusion 5) | 183 | 46.7 | –
GGUGCGUAUGUGAGGAUAUGCUGGUCCUUGGAUCCGCAGAAGGCACAUGAGGAUCACCCAUGUGGUGUCGUACC [salish99_Bmod_Ex4_022] (puzzle: Brourd's mod of Exclusion 4) | – | – | apparent KD of MS2 coat protein [2]: 139 nM
AACGGGACAGGAUAUGUCACGGAGAACAUGAGGAUCACCCAUGUGGCUUCGUGGUCUGUUGCAGAAGGGUCGAAAU [Vebedi] (Eterna round: R97, puzzle: Exclusion 5) | 19.6 | 11.9 | –
AGAGAACAUGAGGAUCACCCAUGUAAGGAUAUGCGAAGAGUUCGGAGAGGUUGAGGAGGCAGAAGGUACAGGAG [JR_Exclu1_Sub042] (puzzle: Exclusion 1) | – | – | apparent KD of MS2 coat protein [3]: 30.5 nM; apparent KD of MS2 coat protein [2]: 31.4 nM; apparent KD of MS2 coat protein [4]: 33.1 nM
GAAGAAGAGAGAAUAGAAAACAUGAGGAUCACCCAUGUGAGAAGAUGAGGGUGUAAUAGGCUUUUGGCUCGUCUUAU (puzzle: Sensor v3, turn-off variant 1) | – | – | apparent KD of MS2 coat protein [3]: 37.9 nM; apparent KD of MS2 coat protein [2]: 89.7 nM; apparent KD of MS2 coat protein [4]: 47.2 nM
CCGAGCAGACGGAGAUCCAACAUGAGGAUCACCCAUGUCUCAAAAGCUUUUUGCUUGUCUUAUUCUCCUCUGUUCUC [Qureorxe] (Eterna round: R96, puzzle: Sensor v3, turn-off variant 1) | 13 | 15.6 | apparent KD of MS2 coat protein [1]: 29.6 nM
CCUCUACAUGAGGAUCACCCAUGUGAGGAUAUCCUGCGAGGAUCAAAAGAUCCUCGUGGGAGAAGGCAUAUGCA [Omei Ex1 A5] (Eterna round: R97, puzzle: Exclusion 1) | 22.2 | 21 | –
GUCCUGGAUUAUCACAAGCACAUGAGGAUCACCCAUGUCAUGGGUGGAUCCCUAAAUGGGUAUUCUGCUCGUCUUAU [Cac Sensor turn off v1 sub11] (Eterna round: R97, puzzle: Sensor, turn-off variant 1) | 417 | – | –
UAUAUAUAGUAAGGAUAUGUAUAUAUUUUGUAAACAGAAGGUACUGACAUGAGGAUCACCCAUGUUUUAGUGUGGGCAUGUAGA [JMF's solution 66] (Eterna round: R96, puzzle: Exclusion NG 1) | – | – | apparent KD of MS2 coat protein [1]: 60.9 nM
CAUGAUUGGGAAGGAUAUUGACCUAGUUAGUGCCGAGAAGGUCCCUUUCACAUGAGGAUCACCCAUGUGAGACUGGUGUUCGAG [Ex NG1 #98] (Eterna round: R96, puzzle: Exclusion NG 1) | – | – | apparent KD of MS2 coat protein [1]: 19.6 nM
GUAUGUUAUGAGGAUAUCGGUGAACAUACACAUCGAGAAGGCAUGACAUGAGGAUCACCCAUGUCAAGGAUGAG [Exclusion 6 - B - 18:c] (puzzle: Exclusion 6) | – | – | apparent KD of MS2 coat protein [3]: 71.9 nM; apparent KD of MS2 coat protein [2]: 17.7 nM; apparent KD of MS2 coat protein [4]: 22.7 nM
UUAGGCUGAAGAUCAAUUAAUUAACAUGAGGAUCACCCAUGUAAGGAUAUCAGCUCGUGUAGAGCUGAGAAGGUACAUGCAGCC [ExNG3/18-A3] (Eterna round: R96, puzzle: Exclusion NG 3) | 436 | 101 | apparent KD of MS2 coat protein [1]: 135 nM
AACUCACAUGAGGAUCACCCAUGUGAGGAUAUGGAUUCGCUGGCCGUAGCCAGUGGAUCCAGAAGGCGCGUGAU [JL-ex1-4.26] (Eterna round: R97, puzzle: Exclusion 1) | 56.7 | 56.9 | –

From the supplement of paper PMC9170038
